One assay has as its target Human Her2 protein (human, UniProt P04626 23-652).
For a further assay, the target named is T1, murine HER2 (murine, UniProt P70424 23-1256).
T1 chain: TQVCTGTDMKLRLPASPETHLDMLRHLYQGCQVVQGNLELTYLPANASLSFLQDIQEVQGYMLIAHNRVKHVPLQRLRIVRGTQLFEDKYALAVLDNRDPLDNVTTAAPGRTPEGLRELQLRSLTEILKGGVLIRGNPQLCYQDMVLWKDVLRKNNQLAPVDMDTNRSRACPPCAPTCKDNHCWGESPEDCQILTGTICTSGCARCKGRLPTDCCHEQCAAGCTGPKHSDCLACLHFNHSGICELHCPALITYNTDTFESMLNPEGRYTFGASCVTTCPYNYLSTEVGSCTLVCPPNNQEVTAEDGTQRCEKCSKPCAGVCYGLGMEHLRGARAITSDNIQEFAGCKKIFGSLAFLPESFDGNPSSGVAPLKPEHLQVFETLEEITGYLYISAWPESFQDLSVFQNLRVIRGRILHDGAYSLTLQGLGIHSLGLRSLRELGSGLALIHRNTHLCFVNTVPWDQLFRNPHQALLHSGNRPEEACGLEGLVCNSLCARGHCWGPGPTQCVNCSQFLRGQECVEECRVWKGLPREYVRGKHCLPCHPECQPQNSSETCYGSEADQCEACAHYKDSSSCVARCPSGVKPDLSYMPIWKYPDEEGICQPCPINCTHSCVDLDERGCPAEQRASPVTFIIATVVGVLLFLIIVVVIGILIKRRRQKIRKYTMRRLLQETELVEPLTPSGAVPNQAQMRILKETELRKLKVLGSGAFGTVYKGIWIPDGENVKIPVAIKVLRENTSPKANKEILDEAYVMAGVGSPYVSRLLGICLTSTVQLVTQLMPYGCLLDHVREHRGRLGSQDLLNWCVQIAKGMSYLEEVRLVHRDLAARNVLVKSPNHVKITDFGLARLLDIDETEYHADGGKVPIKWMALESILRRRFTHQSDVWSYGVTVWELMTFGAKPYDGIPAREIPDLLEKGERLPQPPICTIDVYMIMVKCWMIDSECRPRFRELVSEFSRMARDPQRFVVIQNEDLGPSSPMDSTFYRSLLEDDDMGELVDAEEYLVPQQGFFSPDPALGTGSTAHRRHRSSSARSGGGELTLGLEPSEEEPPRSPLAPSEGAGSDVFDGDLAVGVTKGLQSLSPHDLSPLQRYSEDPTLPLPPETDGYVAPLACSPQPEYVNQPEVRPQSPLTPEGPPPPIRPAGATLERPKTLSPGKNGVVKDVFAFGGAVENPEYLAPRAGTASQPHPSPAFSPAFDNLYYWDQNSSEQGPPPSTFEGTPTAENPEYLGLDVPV

In another assay the target is mouse CA9 protein (mouse, UniProt Q8VHB5 32-437).
Sequence of mouse CA9 protein (Q8VHB5 32-437): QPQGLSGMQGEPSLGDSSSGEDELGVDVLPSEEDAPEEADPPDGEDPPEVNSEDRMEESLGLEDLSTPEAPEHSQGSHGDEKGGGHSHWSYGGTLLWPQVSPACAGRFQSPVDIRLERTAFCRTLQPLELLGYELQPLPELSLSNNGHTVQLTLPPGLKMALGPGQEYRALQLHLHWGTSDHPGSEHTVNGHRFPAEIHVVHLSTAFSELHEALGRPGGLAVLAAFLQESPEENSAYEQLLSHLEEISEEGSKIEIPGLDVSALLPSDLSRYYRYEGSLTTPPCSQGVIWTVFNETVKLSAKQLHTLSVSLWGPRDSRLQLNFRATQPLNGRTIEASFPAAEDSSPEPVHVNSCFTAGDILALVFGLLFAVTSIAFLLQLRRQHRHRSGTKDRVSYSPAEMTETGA

18 molecules from patent US20230340159A1 (published 2023) can be followed below.

Residue numbers refer to the chain shown, from its start.

Sequence of 456 (Q8VHB5 32-437): as above

B1: h1162 Pro1064 (antibody, V domains shown)
VH: QVQLLESGGGLVQPGGSLRLSCAASGRPFSGNAMGWFRQAPGKEREFVAAISWSGDSTYYADSVKGRFTISRDNSKNTLYLQMNSLRAEDTAVYYCAATRSFYSRTYYTRPSDYNYWGPGTLVTVSS
By Kd is commonly meant the equilibrium constant for the complex coming apart. Regarding B1, the equilibrium dissociation constant (Kd) with Human Her2 protein stood at 22.9 nM; in the assay with murine HER2 it was 122 nM.

B2: 1162 Pro1047 (antibody, V domains shown)
VH: B1 VH with L5Q, P14A, S75D, K76E, L79A, R87K, A88P, L122Q
As to B2, the Kd is 21.4 nM with Human Her2 protein and 54 nM with murine HER2.

B3: 1091 Pro1039 (protein)
chain: QVQLQESGGGLVQPGGSLRLSCAASGFTFDDYAMSWVRQAPGKGLEWVSSINWSGTHTDYADSVKGRFTISRDNAKNTLYLQMNSLKSEDSAVYYCVKGWRLTGGYYDSVQGQGTQVTVSS
Consider B3, for which the Kd with Human Her2 protein was found to be 6 nM.

B4: 1097 Pro1041 (protein)
chain: B3 chain with T28I, S35T, L102H, G104D, G105N, D108A, S109G
In the assay with Human Her2 protein, B4 registered a Kd of 2.5 nM. Compared with the last molecule, the Kd is about 2.4-fold lower.

B5: 1092 Pro1040 (protein)
chain: B3 chain with P14A, G16A, M34L
As for B5, the affinity with Human Her2 protein, expressed as Kd, was 3.1 nM.

B6: 1055 Pro1036 (protein)
chain: QVQLQESGGGLVQPGGSLRLTCEVSGRAISSYAISWFRQAPGEEREFVAAINWSGTHTNYADSVKGRFTISRDNVKNTVYLQMNSLKPEDTATYFCSRGWSVFDPDYRGQGTQVTVSS
Regarding B6, the affinity with Human Her2 protein, expressed as Kd, was 53.1 nM. Compared with the last molecule, the Kd is about 17-fold higher.

B7: 1059 Pro1038 (protein)
chain: B6 chain with E23A, V24A, N59D, V75A, T93V
B7 displayed a Kd with Human Her2 protein of 23 nM.

B8: 1058 Pro1037 (protein)
chain: B6 chain with P14A, E23A, V24A, N59D, N77R
Take B8: the Kd with Human Her2 protein was 8.6 nM.

B9: mouse CA9 (enzyme)
chain: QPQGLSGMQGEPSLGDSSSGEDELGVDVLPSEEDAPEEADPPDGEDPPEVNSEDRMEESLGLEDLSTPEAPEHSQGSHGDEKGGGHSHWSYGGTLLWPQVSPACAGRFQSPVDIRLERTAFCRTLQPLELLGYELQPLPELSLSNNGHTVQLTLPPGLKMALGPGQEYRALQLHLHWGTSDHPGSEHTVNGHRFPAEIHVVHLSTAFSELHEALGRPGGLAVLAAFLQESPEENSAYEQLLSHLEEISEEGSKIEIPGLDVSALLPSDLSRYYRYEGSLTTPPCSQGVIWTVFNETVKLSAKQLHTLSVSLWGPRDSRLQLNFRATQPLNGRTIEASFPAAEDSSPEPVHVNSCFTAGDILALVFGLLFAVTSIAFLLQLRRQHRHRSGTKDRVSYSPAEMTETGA
The molecule B9 showed a Kd with 456 of 8.2 nM. This lies in the single-digit nanomolar range.

B10: 1160 Pro1046 (antibody, V domains shown)
VH: QVQLQESGGGLVQAGGSLRLSCAASGRTFSNERLGWFRQAPGKERELVAAIRWSGVIIGYADSVRGRFTISRDNAKSTVYLQMNSLRPEDTAVYFCAADRGVYGTWDYWGQGTQVTVSS
Consider B10, for which, in the assay with Human Her2 protein, the Kd came to 56.7 nM.

B11: h1156 Pro1061 (antibody, V domains shown)
VH: QVQLLESGGGLVQPGGSLRLSCAASRNIGSNYAVGWFRQAPGKEREPVAALRWTGSIIGYDDSLRGRFTISKDNSKNTLYLQMNSLKPEDTAVYYCAARILDRSSYDYWGQGTLVTVSS
For the molecule B11, the Kd with Human Her2 protein was under 0.01 nM.

B12: 1156 Pro1044 (antibody, V domains shown)
VH: B11 VH with L5Q, P14A, R19K, L20V, N74D, S75A, L79V, A92G, L114Q
In the case of B12, binding with Human Her2 protein was put at a Kd of 6.6 nM. This lies in the single-digit nanomolar range.

B13: h456 Pro509 (antibody, V domains shown)
VH: QVQLVESGGGLVQPGGSLRLSCAASGSALIINAMGWYRQAPGKQRELVATVTRSGRTNYADSVKGRFTISRDNSKNTLYLQMNSLRAEDTAVYYCNVALWIADGEYDYWGQGTLVTVSS
Regarding B13, in the assay with mouse CA9 protein, the Kd worked out at 1.4 nM.

B14: 1121 Pro1042 (protein)
chain: QVQLQESGGGLVQAGGSLRLSCAASGFIFSDYAMTWVRQAPGKGLEWVSSINWSGTHTNYADSVKGRFTISRDNAKKTLYLQMNSLKSEDTAVYYCARGWMVVPDSTRGQGTQVTVSS
Regarding B14, the affinity in the assay with Human Her2 protein, expressed as Kd, was 3.8 nM. That is a single-digit nanomolar value.

B15: 1139 Pro1043 (protein)
chain: QVQLQESGGGLVQPGGSLRLSCAASGFTFDDYAMSWIRQAPGKEMEWVSGINWSGTHTRYADSVKGRFTISRDNAKNTLDLQMNSLISEDTAVYYCARGFAADSRSTRGQGTQVTVSS
For B15, in the assay with Human Her2 protein, the Kd turned out to be 5.6 nM.

B16: h1139 Pro1060 (protein)
chain: B15 chain with Q5V, L11V, Q13R, T78S, D80Y, I87R, S88A, V93L, Q113L
B16 displayed a Kd with Human Her2 protein of 7.3 nM.

B17: 1159 Pro1045 (antibody, V domains shown)
VH: QVQLQESGGGLVQAGGSLRLSCATSGRTFSSLAMGWFRQAPGKERELVAGISWSGSTTYYADSVKGRFAISRDNAKNTVYLQMNSLKPEDTAVYYCAARTSSIATIGREYDYWGQGTQVTVSS
B17: the Kd in the assay with Human Her2 protein turned out to be 18 nM; with murine HER2, 80 nM.

B18: h1159 Pro1062 (antibody, V domains shown)
VH: B17 VH with Q5L, A14P, A75S, V79L, K87R, P88A, Q118L
For the molecule B18, the Kd came to 106 nM with Human Her2 protein and 19100 nM in the assay with murine HER2.
